Measured values: US20230124669A1 (ADAGENE, published 2023)

Legend:
[1] = molecular target: T1, Human PDL1 (SPR analyte) (human, UniProt Q9NZQ7 19-238, limits assumed); assay: SPR (Biacore T200), antibody captured by anti-human IgG on CM5 chip, antigen injected as analyte, 1:1 Langmuir fit
T1 construct: also called PDL1H
Protocol: (§1) Biacore T200 (GE Healthcare) was used as a high performance system for real-time biomolecular interaction analysis, using surface plasmon resonance technology (“SPR”). During the measurement, anti-human IgG monoclonal antibody from the Human Antibody Capture Kit provided by Biacore was immobilized on CM5 chips, and IgG sample was injected onto sensor chip. Analytes were injected onto IgG captured flow cell for binding kinetic analysis in HBS-EP buffer.

[2] = molecular target: T2, Human CD137 (SPR analyte) (human, UniProt Q07011 24-186, limits assumed); assay: as above
T2 construct: also called CD137H
Protocol: as §1

T1 sequence (Q9NZQ7 19-238 limits assumed): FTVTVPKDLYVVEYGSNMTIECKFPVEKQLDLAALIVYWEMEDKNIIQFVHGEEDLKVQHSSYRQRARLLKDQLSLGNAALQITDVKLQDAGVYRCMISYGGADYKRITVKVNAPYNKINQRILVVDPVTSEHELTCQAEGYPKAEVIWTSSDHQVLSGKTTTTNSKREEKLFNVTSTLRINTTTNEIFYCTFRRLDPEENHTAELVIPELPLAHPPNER

| Kd [1] | Kd [2] | Binder |
| --- | --- | --- |
| 29.8 nM | 2.7 nM | TY22359 (bispecific antibody, human IgG1, kappa, N297A, Morrison format: anti-CD137 Fab, anti-PDL1 scFv; also called CD137 × PDL1 bispecific antibody, format TYF05; Format 5) heavy: not shown light: EVQLVESGGGLVQPGGSLRLSCAASGFSLSTGGVGVGWIRQAPGKGLEWLALIDWADDKYYSPSLKSRLTISRDNSKNTLYLQLNSLRAEDTAVYYCARGGSDTVIGDWFAYWGQGTLVTVSSASTKGPSVFPLAPSSKSTSGGTAALGCLVKDYFPEPVTVSWNSGALTSGVHTFPAVLQSSGLYSLSSVVTVPSSSLGTQTYICNVNHKPSNTKVDKRVEPKSCDKTHTCPPCPAPELLGGPSVFLFPPKPKDTLMISRTPEVTCVVVDVSHEDPEVKFNWYVDGVEVHNAKTKPREEQYASTYRVVSVLTVLHQDWLNGKEYKCKVSNKALPAPIEKTISKAKGQPREPQVYTLPPSREEMTKNQVSLTCLVKGFYPSDIAVEWESNGQPENCYKTTPPVLDCDGSFFLYSKLTVDKSRWQQGNVFSCSVMHEALHNHYTQKSLSLSPGSGGGSGGGGSEVQLVESGGGLVQPGGSLRLSCAASGYSISSGYYWGWIRQAPGKCLEWIGIIYPSGGGTNYAQKFQGRVTISRDNSKNTLYLQLNSLRAEDTAVYYCARGGGLGFDYWGQGTLVTVSSGGGGSGGGGSGGGGSGGGGSDIQLTQSPSSLSASVGDRVTITCRASQSIPSFLNWYQQKPGKAPKLLIYAASSLQSGVPSRFSGSGSGTDFTLTISSLQPEDFATYYCQHYISWPRQFTFGCGTKVEIKR |
| 42 nM | 3 nM | TY22166 (bispecific antibody, human IgG4 S228P, kappa, Morrison format: anti-CD137 Fab, anti-PDL1 scFv; IgG4(S228P) with N390C:S400'C; also called CD137 × PDL1 bispecific antibody, format TYF07) heavy: not shown light: EVQLVESGGGLVQPGGSLRLSCAASGFSLSTGGVGVGWIRQAPGKGLEWLALIDWADDKYYSPSLKSRLTISRDNSKNTLYLQLNSLRAEDTAVYYCARGGSDTVIGDWFAYWGQGTLVTVSSASTKGPSVFPLAPCSRSTSESTAALGCLVKDYFPEPVTVSWNSGALTSGVHTFPAVLQSSGLYSLSSVVTVPSSSLGTKTYTCNVDHKPSNTKVDKRVESKYGPPCPPCPAPEFLGGPSVFLFPPKPKDTLMISRTPEVTCVVVDVSQEDPEVQFNWYVDGVEVHNAKTKPREEQFNSTYRVVSVLTVLHQDWLNGKEYKCKVSNKGLPSSIEKTISKAKGQPREPQVYTLPPSQEEMTKNQVSLTCLVKGFYPSDIAVEWESNGQPENCYKTTPPVLDCDGSFFLYSRLTVDKSRWQEGNVFSCSVMHEALHNHYTQKSLSLSLGSGGGSEVQLVESGGGLVQPGGSLRLSCAASGYSISSGYYWGWIRQAPGKCLEWIGIIYPSGGGTNYAQKFQGRVTISRDNSKNTLYLQLNSLRAEDTAVYYCARGGGLGFDYWGQGTLVTVSSGGGGSGGGGSGGGGSGGGGSDIQLTQSPSSLSASVGDRVTITCRASQSIPSFLNWYQQKPGKAPKLLIYAASSLQSGVPSRFSGSGSGTDFTLTISSLQPEDFATYYCQHYISWPRQFTFGCGTKVEIKR |
| 8.1 nM | 7.1 nM | TY22176 (bispecific antibody, human IgG1, kappa, N297A, Morrison format: anti-PDL1 Fab, anti-CD137 scFv; IgG1 with N390C:S400'C and N297A; also called PDL1 × CD137 bispecific antibody, format TYF04) heavy: DIQLTQSPSSLSASVGDRVTITCRASQSIPSFLNWYQQKPGKAPKLLIYAASSLQSGVPSRFSGSGSGTDFTLTISSLQPEDFATYYCQHYISWPRQFTFGQGTKVEIKRTVAAPSVFIFPPSDEQLKSGTASVVCLLNNFYPREAKVQWKVDNALQSGNSQESVTEQDSKDSTYSLSSTLTLSKADYEKHKVYACEVTHQGLSSPVTKSFNRGEC light: EVQLVESGGGLVQPGGSLRLSCAASGYSISSGYYWGWIRQAPGKGLEWIGIIYPSGGGTNYAQKFQGRVTISRDNSKNTLYLQLNSLRAEDTAVYYCARGGGLGFDYWGQGTLVTVSSASTKGPSVFPLAPSSKSTSGGTAALGCLVKDYFPEPVTVSWNSGALTSGVHTFPAVLQSSGLYSLSSVVTVPSSSLGTQTYICNVNHKPSNTKVDKRVEPKSCDKTHTCPPCPAPELLGGPSVFLFPPKPKDTLMISRTPEVTCVVVDVSHEDPEVKFNWYVDGVEVHNAKTKPREEQYASTYRVVSVLTVLHQDWLNGKEYKCKVSNKALPAPIEKTISKAKGQPREPQVYTLPPSREEMTKNQVSLTCLVKGFYPSDIAVEWESNGQPENCYKTTPPVLDCDGSFFLYSKLTVDKSRWQQGNVFSCSVMHEALHNHYTQKSLSLSPGSGGGSEVQLVESGGGLVQPGGSLRLSCAASGFSLSTGGVGVGWIRQAPGKCLEWLALIDWADDKYYSPSLKSRLTISRDNSKNTLYLQLNSLRAEDTAVYYCARGGSDTVIGDWFAYWGQGTLVTVSSGGGGSGGGGSGGGGSGGGGSDIQLTQSPSSLSASVGDRVTITCRASQSIGSYLAWYQQKPGKAPKLLIYDASNLETGVPSRFSGSGSGTDFTLTISSLQPEDFATYYCQQGYYLWTFGCGTKVEIKR |
| 7.7 nM | 5.2 nM | TY22165 (bispecific antibody, human IgG4 S228P, kappa, Morrison format: anti-PDL1 Fab, anti-CD137 scFv; IgG4(S228P) with N390C:S400'C; also called PDL1 × CD137 bispecific antibody, format TYF07) heavy: DIQLTQSPSSLSASVGDRVTITCRASQSIPSFLNWYQQKPGKAPKLLIYAASSLQSGVPSRFSGSGSGTDFTLTISSLQPEDFATYYCQHYISWPRQFTFGQGTKVEIKRTVAAPSVFIFPPSDEQLKSGTASVVCLLNNFYPREAKVQWKVDNALQSGNSQESVTEQDSKDSTYSLSSTLTLSKADYEKHKVYACEVTHQGLSSPVTKSFNRGEC light: EVQLVESGGGLVQPGGSLRLSCAASGYSISSGYYWGWIRQAPGKGLEWIGIIYPSGGGTNYAQKFQGRVTISRDNSKNTLYLQLNSLRAEDTAVYYCARGGGLGFDYWGQGTLVTVSSASTKGPSVFPLAPCSRSTSESTAALGCLVKDYFPEPVTVSWNSGALTSGVHTFPAVLQSSGLYSLSSVVTVPSSSLGTKTYTCNVDHKPSNTKVDKRVESKYGPPCPPCPAPEFLGGPSVFLFPPKPKDTLMISRTPEVTCVVVDVSQEDPEVQFNWYVDGVEVHNAKTKPREEQFNSTYRVVSVLTVLHQDWLNGKEYKCKVSNKGLPSSIEKTISKAKGQPREPQVYTLPPSQEEMTKNQVSLTCLVKGFYPSDIAVEWESNGQPENCYKTTPPVLDCDGSFFLYSRLTVDKSRWQEGNVFSCSVMHEALHNHYTQKSLSLSLGSGGGSEVQLVESGGGLVQPGGSLRLSCAASGFSLSTGGVGVGWIRQAPGKCLEWLALIDWADDKYYSPSLKSRLTISRDNSKNTLYLQLNSLRAEDTAVYYCARGGSDTVIGDWFAYWGQGTLVTVSSGGGGSGGGGSGGGGSGGGGSDIQLTQSPSSLSASVGDRVTITCRASQSIGSYLAWYQQKPGKAPKLLIYDASNLETGVPSRFSGSGSGTDFTLTISSLQPEDFATYYCQQGYYLWTFGCGTKVEIKR |
| 33.4 nM | 7 nM | TY22177 (bispecific antibody, human IgG1, kappa, N297A, Morrison format: anti-CD137 Fab, anti-PDL1 scFv; IgG1 with N390C:S400'C and N297A; also called CD137 × PDL1 bispecific antibody, format TYF04) heavy: not shown light: EVQLVESGGGLVQPGGSLRLSCAASGFSLSTGGVGVGWIRQAPGKGLEWLALIDWADDKYYSPSLKSRLTISRDNSKNTLYLQLNSLRAEDTAVYYCARGGSDTVIGDWFAYWGQGTLVTVSSASTKGPSVFPLAPSSKSTSGGTAALGCLVKDYFPEPVTVSWNSGALTSGVHTFPAVLQSSGLYSLSSVVTVPSSSLGTQTYICNVNHKPSNTKVDKRVEPKSCDKTHTCPPCPAPELLGGPSVFLFPPKPKDTLMISRTPEVTCVVVDVSHEDPEVKFNWYVDGVEVHNAKTKPREEQYASTYRVVSVLTVLHQDWLNGKEYKCKVSNKALPAPIEKTISKAKGQPREPQVYTLPPSREEMTKNQVSLTCLVKGFYPSDIAVEWESNGQPENCYKTTPPVLDCDGSFFLYSKLTVDKSRWQQGNVFSCSVMHEALHNHYTQKSLSLSPGSGGGSEVQLVESGGGLVQPGGSLRLSCAASGYSISSGYYWGWIRQAPGKCLEWIGIIYPSGGGTNYAQKFQGRVTISRDNSKNTLYLQLNSLRAEDTAVYYCARGGGLGFDYWGQGTLVTVSSGGGGSGGGGSGGGGSGGGGSDIQLTQSPSSLSASVGDRVTITCRASQSIPSFLNWYQQKPGKAPKLLIYAASSLQSGVPSRFSGSGSGTDFTLTISSLQPEDFATYYCQHYISWPRQFTFGCGTKVEIKR |
